In the data set the test system is MS2 coat protein. Briefly: apparent KD of MS2 coat protein; higher = weaker reporter binding. The conditions noted are these: Eterna round: R107. In outline:
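Apparent KD per design is the median of normalised cluster binding-curve fits. Designed RNA switches transcribed on-chip from Illumina sequencing clusters were titrated with SNAP-549-labelled MS2 coat protein in twofold steps from 0.7 or 1.5 nM to 3 µM, with 0.8–1.5 h down to 10–20 min per step. Buffer: 100 mM Tris-HCl pH 7.5, 80 mM KCl, 4 mM MgCl2, without or with constant ligand.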

Setting [1] is: input ligand: theophylline 20 uM.
[2] abbreviates: input ligand: tryptophan 2.4 mM.
Setting [3] is: input ligand: theophylline 2 mM.

Consider “GUAGCUGAGUGUGAUACCAGAAACGACGUCCUUUAUCAUAACAUGAGGAUCACCCAUGUCUUCCCUUGGCAGCACUUUUCGGUCU [theeternabot_exclusion_MS2_Theo_B_24]”, for which the “apparent KD of MS2 coat protein” value by setting is: (input ligand: arginine 13.2 mM) 29.6 nM; under setting [1], 53.6 nM; under setting [2], 34.7 nM.

With “GUAGGUCUCAUGGGUGGACCUACACUGGAAGGAGCGAGCGAAAGCUCAGGUAGGUCGCCAGAAACAUGAGGAUCACCCAUGUAAU [(A)''-(M)'-(A)'-(Arg1)-(Arg2)-(M1)-(M2)_Design1]”, the “apparent KD of MS2 coat protein” value (input ligand: arginine 13.2 mM) turned out to be 72.3 nM; the “apparent KD of MS2 coat protein” value (input ligand: none) was determined as 360 nM; the “apparent KD of MS2 coat protein” value under setting [1] worked out at 144 nM; the “apparent KD of MS2 coat protein” value under setting [3] was determined as 288 nM; the “apparent KD of MS2 coat protein” value under setting [2] amounted to 320 nM.

For the sequence “GUCUGAGUCUGAAGGAGCGACAUGAGGAUCACCCAUGUCUCCCGUUAUGGGAGUUCCUUAGGUCAGGUAGGUCGCAGACUCAGAC [#1 Exclusion - Arginine B Attempt #26 (Inspired by Omei)]”, the “apparent KD of MS2 coat protein” value by setting is: (input ligand: arginine 13.2 mM) 60.9 nM; (input ligand: none) 145 nM; under setting [1], 139 nM; under setting [3], 172 nM; under setting [2], 108 nM.

Regarding “GUGUACAUGAGGAUCACCCAUGUCGAGUUACGAGGACCGGUACGGCCGCCACUCGGCGGCUCGACACGGAUAGCGGUGCGUUGCU [Exclusion - Tryptophan A]”, the “apparent KD of MS2 coat protein” value runs as follows: (input ligand: arginine 13.2 mM) 18.2 nM; (input ligand: none) 33.2 nM; under setting [1], 40.8 nM; under setting [3], 35.4 nM; under setting [2], 129 nM.

Take “UAAAACAUGAGGAUCACCCAUGUAAUUGAUACCAGAGUGAUGAUCCUCCCUUGGCAGCAAAUAACGCAUUGAUUACAAUGCGAAA [Mat - Same State Theophlline A - Mod of Eli - D27]”: the “apparent KD of MS2 coat protein” value runs as follows: (input ligand: arginine 13.2 mM) 27.9 nM; under setting [1], 105 nM; under setting [2], 35 nM.

With “UAAACUACACAUGAGGAUCACCCAUGUGGCCGAGGACCGGUACGGCCGCCACUCGUGUGUUAAUAAUAGAACUGCAAGGUUCUGU [Enindidiso]”, the “apparent KD of MS2 coat protein” value (input ligand: arginine 13.2 mM) was 75.6 nM, the “apparent KD of MS2 coat protein” value under setting [1] came to 228 nM and the “apparent KD of MS2 coat protein” value under setting [3] worked out at 272 nM.

In the case of “UAAUAAAUAAAUCCAAGGUGAAGGUCAGAUACCAGCCAGAUAACUGGCCCUUGGCAGCUGAAUAAACUUGAGGAUCACCCAGGUA [TheoAS 27 #OpenEnded #MS2Late #AlternativeMS2]”, the “apparent KD of MS2 coat protein” value came out at 45.4 nM (input ligand: arginine 13.2 mM); 63.1 nM (input ligand: none); 135 nM under setting [1]; 548 nM under setting [3]; 55.6 nM under setting [2].

For “UAAUAAAUAAAUCCAAGGUGAAGGUCAGAUACCAGCCAGAUAACUGGCCCUUGGCAGCUGAAUAAGCUUGAGGAUCACCCAAGUA [TheoAS 26 #OpenEnded #MS2Late #AlternativeMS2]”, the “apparent KD of MS2 coat protein” value by setting is: (input ligand: arginine 13.2 mM) 27.5 nM; under setting [1], 68.4 nM; under setting [3], 275 nM; under setting [2], 32.8 nM.

As for “UAAUAAAUAAAUCCAAGGUGUAGGUCAGAUACCAGCCAGAUAACUGGCCCUUGGCAGCUGAAUAAACCUGAGGAACACCCAGGUA [TheoAS 24 #OpenEnded #MS2Late #AlternativeMS2]”, the “apparent KD of MS2 coat protein” value was found to be 26.7 nM (input ligand: arginine 13.2 mM); 31.6 nM (input ligand: none); 49.5 nM under setting [1]; 197 nM under setting [3]; 27.3 nM under setting [2].

Consider “UAAUAAUUCCUCAUGUCACGAGUGGCAUAACGAGGACCGGUACGGCCGCCACUCGAACAUGAGGAUCACCCAUGUAGCCACUCGA [M'-T'-T-MS2-T'' - Design 4]”, for which the “apparent KD of MS2 coat protein” value (input ligand: arginine 13.2 mM) was determined as 56.7 nM, the “apparent KD of MS2 coat protein” value under setting [1] worked out at 286 nM and the “apparent KD of MS2 coat protein” value under setting [3] is 474 nM.

For “UACAGUACAACAGAUACCAGACAGUACUCUAGAUUGCAACAUGAGGAUCACCCAUGUAUAGUCCCUUGGCAGCUGUAAUGGGUGA [Theo B SS s1]”, the “apparent KD of MS2 coat protein” value by setting is: (input ligand: arginine 13.2 mM) 142 nM; under setting [1], 195 nM; under setting [2], 77.2 nM.

Regarding “UACAUGAGGAUCACCCAUGUAUAGAGGGAUACCAGUGUCAGUGAGCACCCUUGGCAGCCCGCGAACAAUGGGUGCGCUAUAUAGU [#20 Exclusion-TheophyllineA]”, the “apparent KD of MS2 coat protein” value was determined as 18.2 nM (input ligand: arginine 13.2 mM), 46.8 nM under setting [1] and 28 nM under setting [2].

For the sequence “UACAUGAGGAUCACCCAUGUAUUGCCGGUACGAGGACCGGUACGGCCGCCACUCGGAGCAUGAGGAUCACCCAUGUGCUGCUAUG [Same State Trypophan A GF 24]”, the “apparent KD of MS2 coat protein” value by setting is: (input ligand: arginine 13.2 mM) 35.5 nM; under setting [1], 67.1 nM; under setting [3], 83.7 nM.

In the case of “UAGGUGAUCUUCAACGGAAAACGUUGUGAUACCAGCCAACAAUACGGCCCUUGGCAGCACAUGAGGAUCACCCAUGUGUACACCG [Vetizaatdi]”, the “apparent KD of MS2 coat protein” value by setting is: (input ligand: arginine 13.2 mM) 25.6 nM; under setting [1], 48.7 nM; under setting [2], 30.6 nM.

Consider “UAUAAAAUAACAGAUACCAGCGUGUUAUAAAACAUGAGGAUCACCCAUGUAGUGAUCAAGCGCCCUUGGCAGCUGGUAUUUUAUG [7.C]”, for which the “apparent KD of MS2 coat protein” value is 92.3 nM (input ligand: arginine 13.2 mM), 166 nM under setting [1] and 58.1 nM under setting [2].

Consider “UAUAAUAACUCGGCCGCCACUGGCACAUGAGGAUCACCCAUGUCUAUAUAUAAUAUAUAGUUGCACAGGACCGGGAGAUAUAUAU [Exclusion - Tryptophan B]”, for which the “apparent KD of MS2 coat protein” value is, setting by setting: (input ligand: arginine 13.2 mM) 10.5 nM; under setting [1], 12.5 nM; under setting [3], 10.5 nM.

Turning to “UAUAUAUAUAGUGAUACCAGCAGAGAAAACGUUUAUCCUAACAUGAGGAUCACCCAUGUAUGCCCUUGGCAGCGUUAUAUAUAUA [8.E]”, the “apparent KD of MS2 coat protein” value worked out at 21.2 nM (input ligand: arginine 13.2 mM), 29.1 nM under setting [1] and 21.9 nM under setting [2].

As for “UAUAUAUAUAUGGAUACCAGCAGAGAAAACGUUUAUCCUAACAUGAGGAUCACCCAUGUAUGCCCUUGGCAGCUGUGUAUAUAUA [8.H]”, the “apparent KD of MS2 coat protein” value came out at 16.7 nM (input ligand: arginine 13.2 mM), 26.5 nM under setting [1] and 19.2 nM under setting [2].

On to “UAUAUAUAUAUUGAUACCAGCAGAGAAAACAUAUAUCCUAACAUGAGGAUCACCCAUGUAUGCCCUUGGCAGCGAUAUAUAUAUA [8.A]”, for which the “apparent KD of MS2 coat protein” value runs as follows: (input ligand: arginine 13.2 mM) 24.9 nM; under setting [1], 28.1 nM; under setting [2], 23.5 nM.

As for “UAUAUAUAUAUUGAUACCAGCAGAGAAAACGUUUAUCCUAACAUGAGGAUCACCCAUGUAUGCCCUUGGCAGCGAUAUAUAUAUA [8.C]”, the “apparent KD of MS2 coat protein” value is 22.2 nM (input ligand: arginine 13.2 mM), 31.3 nM under setting [1] and 21.7 nM under setting [2].

Turning to “UAUCGUCAGACGGCCGCCACUAGAACAUGAGGAUCACCCAUGUAAGUGGCUGGUUCAUGGGUGUCUAGGACCGGGUCUGACGAAU [(Trp1)-(Ms2)-(T)'-(M)'-(Trp2)_Design20]”, the “apparent KD of MS2 coat protein” value is, setting by setting: (input ligand: arginine 13.2 mM) 14.8 nM; under setting [1], 21.2 nM; under setting [3], 17.6 nM.

On to “UAUGUCGCCGAAGAUACCAGCCUGGCAAGCAACAUGAGGAUCACCCAUGUAAUUACUUAUGGCCCUUGGCAGCUUCAAAUAGAGC [theeternabot_sameState_MS2_Theo_B_42]”, for which the “apparent KD of MS2 coat protein” value came out at 10.8 nM (input ligand: arginine 13.2 mM), 15.5 nM under setting [1] and 12.4 nM under setting [2].

“UAUUUGGUGCGCGAGCGCUGGAUAAUUGAUACCAGUGAAGAAGAGCGCCCUUGGCAGCGAAUCCUAACAUGAGGAUCACCCAUGU [5.R]”: the “apparent KD of MS2 coat protein” value turned out to be 33.1 nM (input ligand: arginine 13.2 mM), 54.1 nM under setting [1] and 38.7 nM under setting [2].

Turning to “UCACAUGAGGAUCACCCAUGUAAAGUUGAAGGAGCGAUCAUUAGGUCAGGUAGGUCGCAACACAUGAGGAUCACCCAUGUUGUCC [DOUBLE!!! :-D]”, the “apparent KD of MS2 coat protein” value runs as follows: (input ligand: arginine 13.2 mM) 25.7 nM; (input ligand: none) 40.8 nM; under setting [1], 49.9 nM; under setting [3], 47.1 nM; under setting [2], 38.3 nM.

As to “UCAGUGCAAGGAAGGAGCGGGUACAUGAGGAUCACCCAUGUGCAAGUGGUGAGCGUCCGUGCCCAGGUAGGUCGCCUAGCCUGGU [Quisso]”, the “apparent KD of MS2 coat protein” value reads like this: (input ligand: arginine 13.2 mM) 56 nM; (input ligand: none) 109 nM; under setting [1], 180 nM; under setting [3], 149 nM; under setting [2], 101 nM.

(Values after the supplement of paper PMC9170038.)
